Assay results as given in US20110091479A1 (PIERRE FABRE MEDICAMENT, published 2011).
Values belong to the molecule of their own block, whether it stands above or below them.

Tests used:
[1] = biological target: human insulin-like growth factor I receptor IGF-IR (human) (UniProt P08069); test: displacement of [125I]IGF-1 on R+ intact cells expressing IGF-IR
[2] = biological target: T1, Hybrid-RsA (insulin/IGF-I hybrid receptor with IR isoform A) (human, UniProt P08069 31-1367; P06213 28-1370); test: displacement of [125I]-IGF1 on immunocaptured Hybrid-RsA
T1 construct: Heterodimer of an IGF-IR half and an IR-A half, captured on plates coated with antibody 83-7; also called HR-A; hybrid receptors A

[3] = biological target: T2, human insulin-like growth factor I receptor IGF-IR (human, UniProt P08069 31-1367); test: cell-based or functional assay
[4] = biological target: T2, human insulin-like growth factor I …; test: displacement of [125I]IGF-1 on R+ intact cells expressing IGF-IR

B2: 13F5 (antibody, V domains shown)
VH: QAQLQQPGAVLVRPGASVKLSCKASSYSFTDYWMNWVKRRPGQGLQWIGLIHPSDSETRLDQNFKDKATLTVDKFSSTAYMQLNSPTSEDSAVYYCTRSVIYYGNYRWYFDVWGAGTTVTVSS
VL: DVLMTQTPLSLPVSLGDQASISCRSSQTIIHSNGNTYLEWYLQKPGQSPKLLIYKVSNRFSGVPDRFSGSGSGTDFTLKISRVEAEDLGVYYCFQGSHVPYTFGGGTKLEIK
notes: also called hybridoma CNCM I-3193
IC50 [2]: 0.35 nM
proliferative index of MCF-7 cells at 50 ng/ml IGF1, antibody 5 µg/ml [3]: < 5
IC50 [4]: 0.2 nM

B3: 12D5 (antibody, V domains shown)
VH: QVQLKESGPGLVAPSQSLSITCTVSGFSLNEYGVSWIRQPPGKGLEWLGVIWGGRDTYYHSPLKSRLSITKDNSKSQVFLKMNSLQTDDTAMYYCAKHEGMDYWGQGTSVTVSS
VL: DIVMTQSQKFMSTSVGDRVSVTCKASQNVVTNVAWYQHKPGHSPKPLIYSASYRYSGVPDRFTGSGSGTDFTLTINNVQSEDLAEYFCHQYNNFPLTFGAGTKLELK
proliferative index of MCF-7 cells at 50 ng/ml IGF1, antibody 5 µg/ml [3]: < 5

B4: 12B1 (antibody, V domains shown)
VH: QVQLKESGPDLVAPSQSLSITCTVSGFSLTNYGVHWVRQFPGKGLEWLGVIWAGGNTNYNSALMSRLTISKDNSKSQVFLKMNSLQTDDTAVYYCAREYGSTYVAWFAHWGQGTLVTVSS
VL: ENVLTQSPAIMSASPGEKVTMTCGASSSVSSSFLHWYQQKSGASPKLWIYSTSNLASGVPTRFSGSGSGTSYSLTISSVEAEDAATYYCQQYSGYPLTFGAGTKLELK
proliferative index of MCF-7 cells at 50 ng/ml IGF1, antibody 5 µg/ml [3]: < 5

Other lines, results leading:

IC50 [1]: 0.05 nM
Molecule: αIR3 (antibody)

IC50 [2]: 0.2 nM
proliferative index of MCF-7 cells at 50 ng/ml IGF1, antibody 5 µg/ml [3]: < 5
IC50 [4]: 0.15 nM
B1: 2D10 (antibody, V domains shown)
VH: EVNLVESGGILVKPGGSLRLSCAASGFTFSNYAMSWVRQTPEKRLEWVASIGSAGYIHYPDSVKGRFTISRDNARNILYLQMSSLRSEDTAMYYCAREGGLVWFAYWGQGTLVTVSA
VL: ETTVTQSPASLSVATGEKVTIRCITSTDIDDDMNWYQQKPGEPPKLLISEGNTLRPGVPSRFSSSGYGTDFVLTIENTLSEDVADYYCLQSDKMPLTFGAGTKLELK
notes: also called hybridoma CNCM I-3214
